Results from patent publication US20100260668A1 (published 2010).

B1: DVD452 (bispecific antibody, IgG1)
VH: EVQLVESGGGLVQPGGSLRLSCAASGFTINASWIHWVRQAPGKGLEWVGAIYPYSGYTNYADSVKGRFTISADTSKNTAYLQMNSLRAEDTAVYYCARWGHSTSPWAMDYWGQGTLVTVSSASTKGPSVFPLAPQVQLVQSGAEVKKPGASVKISCKASGYSFTAYYIHWVKQAPGQGLEWIGYISSYNGATNYNQKFKGRVTFTTDTSTSTAYMELRSLRSDDTAVYYCARDYDYDVGMDYWGQGTLVTVSS
VL: DIQMTQSPSSLSASVGDRVTITCRASQVIRRSLAWYQQKPGKAPKLLIYAASNLASGVPSRFSGSGSGTDFTLTISSLQPEDFATYYCQQSNTSPLTFGQGTKVEIKRTVAAPSVFIFPPDIVMTQSPDSLAVSLGERATISCRASESVDNYGISFMKWFQQKPGQPPKLLIYAASNQGSGVPDRFSGSGSGTDFTLTISSLQAEDVAVYYCQQSKEVPWTFGGGTKVEIKR
notes: DVD-Ig, outer AB071 / inner AB069; HC linker long, LC linker long; also called DVD452H; DVD452L
B2: DVD451 (bispecific antibody, IgG1)
VH: QVQLVQSGAEVKKPGASVKISCKASGYSFTAYYIHWVKQAPGQGLEWIGYISSYNGATNYNQKFKGRVTFTTDTSTSTAYMELRSLRSDDTAVYYCARDYDYDVGMDYWGQGTLVTVSSASTKGPSVFPLAPEVQLVESGGGLVQPGGSLRLSCAASGFTINASWIHWVRQAPGKGLEWVGAIYPYSGYTNYADSVKGRFTISADTSKNTAYLQMNSLRAEDTAVYYCARWGHSTSPWAMDYWGQGTLVTVSS
VL: DIVMTQSPDSLAVSLGERATISCRASESVDNYGISFMKWFQQKPGQPPKLLIYAASNQGSGVPDRFSGSGSGTDFTLTISSLQAEDVAVYYCQQSKEVPWTFGGGTKVEIKRTVAAPSVFIFPPDIQMTQSPSSLSASVGDRVTITCRASQVIRRSLAWYQQKPGKAPKLLIYAASNLASGVPSRFSGSGSGTDFTLTISSLQPEDFATYYCQQSNTSPLTFGQGTKVEIKR
notes: DVD-Ig, outer AB069 / inner AB071; HC linker long, LC linker long; also called DVD451H; DVD451L
B3: DVD446 (bispecific antibody, IgG1)
VH: EVQLVESGGGLVQPGGSLRLSCAASGFTINASWIHWVRQAPGKGLEWVGAIYPYSGYTNYADSVKGRFTISADTSKNTAYLQMNSLRAEDTAVYYCARWGHSTSPWAMDYWGQGTLVTVSSASTKGPQVQLVQSGAEVKKPGASVKISCKASGYSFTAYYIHWVKQAPGQGLEWIGYISSYNGATNYNQKFKGRVTFTTDTSTSTAYMELRSLRSDDTAVYYCARDYDYDVGMDYWGQGTLVTVSS
VL: DIQMTQSPSSLSASVGDRVTITCRASQVIRRSLAWYQQKPGKAPKLLIYAASNLASGVPSRFSGSGSGTDFTLTISSLQPEDFATYYCQQSNTSPLTFGQGTKVEIKRTVAAPDIVMTQSPDSLAVSLGERATISCRASESVDNYGISFMKWFQQKPGQPPKLLIYAASNQGSGVPDRFSGSGSGTDFTLTISSLQAEDVAVYYCQQSKEVPWTFGGGTKVEIKR
notes: DVD-Ig, outer AB071 / inner AB069; HC linker short, LC linker short; also called DVD446H; DVD446L
B4: DVD464 (bispecific antibody, IgG1)
VH: B3 VH
VL: B1 VL
notes: DVD-Ig, outer AB071 / inner AB069; HC linker short, LC linker long; also called DVD464H; DVD464L
B5: DVD458 (bispecific antibody, IgG1)
VH: B1 VH
VL: B3 VL
notes: DVD-Ig, outer AB071 / inner AB069; HC linker long, LC linker short; also called DVD458H; DVD458L
B6: DVD444 (bispecific antibody, IgG1)
VH: EVQLVESGGGLVQPGGSLRLSCAASGFTISDYWIHWVRQAPGKGLEWVAGITPAGGYTYYADSVKGRFTISADTSKNTAYLQMNSLRAEDTAVYYCARFVFFLPYAMDYWGQGTLVTVSSASTKGPQVQLVQSGAEVKKPGASVKISCKASGYSFTAYYIHWVKQAPGQGLEWIGYISSYNGATNYNQKFKGRVTFTTDTSTSTAYMELRSLRSDDTAVYYCARDYDYDVGMDYWGQGTLVTVSS
VL: DIQMTQSPSSLSASVGDRVTITCRASQDVSTAVAWYQQKPGKAPKLLIYSASFLYSGVPSRFSGSGSGTDFTLTISSLQPEDFATYYCQQSYTTPPTFGQGTKVEIKRTVAAPDIVMTQSPDSLAVSLGERATISCRASESVDNYGISFMKWFQQKPGQPPKLLIYAASNQGSGVPDRFSGSGSGTDFTLTISSLQAEDVAVYYCQQSKEVPWTFGGGTKVEIKR
notes: HC linker short, LC linker short; also called DVD444H; DVD444L
B7: DVD449 (bispecific antibody, IgG1)
VH: QVQLVQSGAEVKKPGASVKISCKASGYSFTAYYIHWVKQAPGQGLEWIGYISSYNGATNYNQKFKGRVTFTTDTSTSTAYMELRSLRSDDTAVYYCARDYDYDVGMDYWGQGTLVTVSSASTKGPSVFPLAPEVQLVESGGGLVQPGGSLRLSCAASGFTISDYWIHWVRQAPGKGLEWVAGITPAGGYTYYADSVKGRFTISADTSKNTAYLQMNSLRAEDTAVYYCARFVFFLPYAMDYWGQGTLVTVSS
VL: DIVMTQSPDSLAVSLGERATISCRASESVDNYGISFMKWFQQKPGQPPKLLIYAASNQGSGVPDRFSGSGSGTDFTLTISSLQAEDVAVYYCQQSKEVPWTFGGGTKVEIKRTVAAPSVFIFPPDIQMTQSPSSLSASVGDRVTITCRASQDVSTAVAWYQQKPGKAPKLLIYSASFLYSGVPSRFSGSGSGTDFTLTISSLQPEDFATYYCQQSYTTPPTFGQGTKVEIKR
notes: HC linker long, LC linker long; also called DVD449H; DVD449L
B8: DVD445 (bispecific antibody, IgG1)
VH: QVQLVQSGAEVKKPGASVKISCKASGYSFTAYYIHWVKQAPGQGLEWIGYISSYNGATNYNQKFKGRVTFTTDTSTSTAYMELRSLRSDDTAVYYCARDYDYDVGMDYWGQGTLVTVSSASTKGPEVQLVESGGGLVQPGGSLRLSCAASGFTINASWIHWVRQAPGKGLEWVGAIYPYSGYTNYADSVKGRFTISADTSKNTAYLQMNSLRAEDTAVYYCARWGHSTSPWAMDYWGQGTLVTVSS
VL: DIVMTQSPDSLAVSLGERATISCRASESVDNYGISFMKWFQQKPGQPPKLLIYAASNQGSGVPDRFSGSGSGTDFTLTISSLQAEDVAVYYCQQSKEVPWTFGGGTKVEIKRTVAAPDIQMTQSPSSLSASVGDRVTITCRASQVIRRSLAWYQQKPGKAPKLLIYAASNLASGVPSRFSGSGSGTDFTLTISSLQPEDFATYYCQQSNTSPLTFGQGTKVEIKR
notes: DVD-Ig, outer AB069 / inner AB071; HC linker short, LC linker short; also called DVD445H; DVD445L
B9: DVD463 (bispecific antibody, IgG1)
VH: B8 VH
VL: B2 VL
notes: DVD-Ig, outer AB069 / inner AB071; HC linker short, LC linker long; also called DVD463H; DVD463L
B10: DVD457 (bispecific antibody, IgG1)
VH: B2 VH
VL: B8 VL
notes: DVD-Ig, outer AB069 / inner AB071; HC linker long, LC linker short; also called DVD457H; DVD457L
B11: DVD450 (bispecific antibody, IgG1)
VH: EVQLVESGGGLVQPGGSLRLSCAASGFTISDYWIHWVRQAPGKGLEWVAGITPAGGYTYYADSVKGRFTISADTSKNTAYLQMNSLRAEDTAVYYCARFVFFLPYAMDYWGQGTLVTVSSASTKGPSVFPLAPQVQLVQSGAEVKKPGASVKISCKASGYSFTAYYIHWVKQAPGQGLEWIGYISSYNGATNYNQKFKGRVTFTTDTSTSTAYMELRSLRSDDTAVYYCARDYDYDVGMDYWGQGTLVTVSS
VL: DIQMTQSPSSLSASVGDRVTITCRASQDVSTAVAWYQQKPGKAPKLLIYSASFLYSGVPSRFSGSGSGTDFTLTISSLQPEDFATYYCQQSYTTPPTFGQGTKVEIKRTVAAPSVFIFPPDIVMTQSPDSLAVSLGERATISCRASESVDNYGISFMKWFQQKPGQPPKLLIYAASNQGSGVPDRFSGSGSGTDFTLTISSLQAEDVAVYYCQQSKEVPWTFGGGTKVEIKR
notes: HC linker long, LC linker long; also called DVD450H; DVD450L
B12: DVD443 (bispecific antibody, IgG1)
VH: QVQLVQSGAEVKKPGASVKISCKASGYSFTAYYIHWVKQAPGQGLEWIGYISSYNGATNYNQKFKGRVTFTTDTSTSTAYMELRSLRSDDTAVYYCARDYDYDVGMDYWGQGTLVTVSSASTKGPEVQLVESGGGLVQPGGSLRLSCAASGFTISDYWIHWVRQAPGKGLEWVAGITPAGGYTYYADSVKGRFTISADTSKNTAYLQMNSLRAEDTAVYYCARFVFFLPYAMDYWGQGTLVTVSS
VL: DIVMTQSPDSLAVSLGERATISCRASESVDNYGISFMKWFQQKPGQPPKLLIYAASNQGSGVPDRFSGSGSGTDFTLTISSLQAEDVAVYYCQQSKEVPWTFGGGTKVEIKRTVAAPDIQMTQSPSSLSASVGDRVTITCRASQDVSTAVAWYQQKPGKAPKLLIYSASFLYSGVPSRFSGSGSGTDFTLTISSLQPEDFATYYCQQSYTTPPTFGQGTKVEIKR
notes: HC linker short, LC linker short; also called DVD443H; DVD443L

Biological target: VEGF (VEGF 1-165 aa, R&D Systems 293-VE-010) (UniProt P15692 27-191)
Assay: Direct bind ELISA, VEGF coated on plate;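 further: ELISA screening of antibodies for binding to the plate-coated target antigen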

VEGF (VEGF 1-165 aa, R&D Systems 293-VE-010), sequence (P15692 other isoform, or with tags, fused parts or gaps limits assumed): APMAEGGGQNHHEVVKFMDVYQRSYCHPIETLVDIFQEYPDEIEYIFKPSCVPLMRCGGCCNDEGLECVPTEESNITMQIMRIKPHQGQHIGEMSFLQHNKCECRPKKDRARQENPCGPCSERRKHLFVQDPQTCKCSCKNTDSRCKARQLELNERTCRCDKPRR

EC50 [nM]	Binder
17.8	B1
2400	B2
14.4	B3
19.3	B4
21.5	B5
2.44	B6
15.6	B7
14500	B8
1730	B9
1480	B10
12.1	B11
611	B12
